Results on one protein are retold here after paper PMC7065271 (Chemico-biological interactions, 2020).

The data set concerns the molecule itself. Briefly: SEC.

B1: Torpedo californica acetylcholinesterase tetramer (enzyme, UniProt P04058-2 22-596, looked up)
chain: DDHSELLVNTKSGKVMGTRVPVLSSHISAFLGIPFAEPPVGNMRFRRPEPKKPWSGVWNASTYPNNCQQYVDEQFPGFSGSEMWNPNREMSEDCLYLNIWVPSPRPKSTTVMVWIYGGGFYSGSSTLDVYNGKYLAYTEEVVLVSLSYRVGAFGFLALHGSQEAPGNVGLLDQRMALQWVHDNIQFFGGDPKTVTIFGESAGGASVGMHILSPGSRDLFRRAILQSGSPNCPWASVSVAEGRRRAVELGRNLNCNLNSDEELIHCLREKKPQELIDVEWNVLPFDSIFRFSFVPVIDGEFFPTSLESMLNSGNFKKTQILLGVNKDEGSFFLLYGAPGFSKDSESKISREDFMSGVKLSVPHANDLGLDAVTLQYTDWMDDNNGIKNRDGLDDIVGDHNVICPLMHFVNKYTKFGNGTYLYFFNHRASNLVWPEWMGVIHGYEIEFVFGLPLVKELNYTAEEEALSRRIMHYWATFAKTGNPNEPHSQESKWPLFTTKEQKFIDLNTEPMKVHQRLRVQMCVFWNQFLPKLLNATETIDEAERQWKTEFHRWSSYMMHWKNQFDHYSRHESCAEL
As a reminder, the stoichiometry N is the number of molecules, sites or subunits per partner or assembly. With B1, the “stoichiometry N” value stood at 4.
